Our source for the minimum amount of antigen visible (detection limit) values is patent US20070098721A1.

Holding throughout (experiment): dot blot, antigen dilution series on nitrocellulose
Assay [1] has as its target Aβ(1-42) fibril preparation of example 27 (human) (UniProt P05067).
The target in assay [2] is Aβ(1-42) oligomers B (human amyloid β(1-42) oligomers having molecular weights of 38 kDa and 48 kDa; preparation of example 6b) (human) (UniProt P05067).
For assay [3], the target named is HFIP-treated Aβ(1-42) monomer of example 1a (human amyloid β(1-42) protein) (human).
Sequence of HFIP-treated Aβ(1-42) monomer of example 1a (human amyloid β(1-42) protein) (human) (peptide, as listed by the source): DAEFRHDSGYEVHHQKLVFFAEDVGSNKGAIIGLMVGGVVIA

Sequence of Aβ(1-42) fibril preparation of example 27 (human) (P05067 672-713 limits assumed): as the sequence (peptide, as listed by the source) above
Sequence of Aβ(1-42) oligomers B (human amyloid β(1-42) oligomers having molecular weights of 38 kDa and 48 kDa; preparation of example 6b) (human) (P05067 672-713 limits assumed): as the sequence (peptide, as listed by the source) above

In the case of monoclonal antibody 6E10 (Signet), the results for the minimum amount of antigen visible (detection limit) in assay [1], in assay [2] and in assay [3] were 1 pmol, 0.1 pmol and 0.1 pmol, respectively.
